Experimental findings from patent US20120195831A1 (published 2012) are described below.

The target in assay [1] is T1, Recombinant Human Her3 (Her3/ErbB3 extracellular domain) (human, UniProt P21860 20-643).
T1 construct: Analyte of the BIAcore assay; also called Her3 ECD; human Her3/ErbB3 extracellular domain
Description: SPR (BIAcore), Mab captured by anti-IgG Fc on CM5 chip, recombinant human Her3 as analyte, 25 °C. On the procedure: All experiments were performed at 25° C. at a flow rate of 40 μl/min. To prepare a BIAcore assay, an anti-human IgG-Fc antibody (50 μg/ml each in acetate buffer, pH 5.0) was immobilized onto a carboxymethyl dextran sensorchip (CM5) using amine coupling procedures as described by the manufacturer. 10000 resonance units (RU) of anti-mouse IgG Fc antibodies were linked respectively onto Flowcells (FC) 1 and 2. Purified Mabs to be tested were diluted at a concentration of 5 μg/ml in 0.5% P20, HBS-EP buffer and injected on FC2 to reach 500 to 1000 RU. FC1 was used as the reference cell. Specific signals correspond to the difference of signals obtained on FC2 versus FC1. The analyte (Recombinant Human Her3, apparent molecular weight 97 kDa) was injected during 90 sec at 5 different concentrations (100, 50, 25, 12.5 and 6.25 nM) in 0.5% P20, HBS-EP buffer. These concentrations were prepared from stock solution in 0.5% P20, HBS-EP. The dissociation phase of the analyte was monitored over a 10 minutes period. Running buffer was also injected under the same conditions as a double reference. After each cycle (antibody+Her3 injection), both Flowcells were regenerated by injecting 20 to 45 μl of Glycine-HCl buffer pH 1.5. This regeneration is sufficient to eliminate all Mabs and Mabs/Her3 complexes captured on the sensorchip. Table 1 listed binding KD for Her3 binding monoclonal antibodies.

Assay [2] has as its target T2, Her3/Avi/His10 receptor (Homo sapiens (Human), UniProt P21860 20-643, limits assumed).
T2 construct: Soluble tagged receptor of the AlphaScreen assay; The antibodies are called anti-hHer3 there; not shown: Avi tag; His10 tag (ten histidines by its name)
Description: AlphaScreen ligand blocking: antibody titrated against 10 nM biotinylated NRG-1 beta and 10 nM Her3/Avi/His10, % signal. On the procedure: (§1) SDI or Genovac purified anti-hHer3 Mabs were serially diluted two-fold into an assay buffer made from 25 mM Hepes, 100 mM NaCl, 0.5% BSA and 0.05% Tween20 in an opaque/white, half-well area plate (Costar). Mouse IgG1 antibody was used as a negative control (Southern Biotech; cat #010201). Biotinylated NRG-1 beta ligand and Her3/Avi/His₁₀ receptor were added sequentially at 10 nM concentration to the assay plate containing serially diluted antibodies. This mixture of receptor, ligand and the antibodies was incubated at room temperature with gentle shaking for 90 minutes. AlphaScreen Streptavidin Donor beads and His-Nickel chelate Acceptor beads were added into the assay at a final concentration of 20 μg/ml each. The light sensitive beads were handled under chromagreen filtered light. The assay plates were covered with foil and incubated at room temperature with gentle shaking for 1 hour. The plates were read in PE EnVision plate reader equipped with an Alpha module (dedicated laser for excitation and designed to measure the signal above the well). Table 7 listed IC₅₀ values in ligand blocking that were estimated using four parameter curve fitting with concentration titration graphs (FIGS. 7 A&B).
Background: Alpha assays give light when donor and acceptor beads are brought close together.

For assay [3], the target named is T2, Her3/Avi/His10 receptor. In words: AlphaScreen competition; antibody titrated against 10 nM biotinylated NRG-1 beta and 10 nM Her3/Avi/His10; n = 3. On the procedure:
as §1

Assay [4] deals with T3, human Her3 receptor on cells (T47D, MCF7) (human, UniProt P21860 20-1342). In words: cell-based or functional assay.
The target in the next assay is T4, mouse HER3/ErbB3 (mouse, UniProt Q61526).
T4 construct: receptor expressed on CHO cells; also called mouse Her3 receptor on CHO cells
Description: FACS, purified IgG on CHO cells expressing mouse Her3, R-PE anti-mouse IgG. Here is the method: (§2) CHO cell lines expressing human or mouse Her3 receptors were used to study species-cross reactivity. Cells were harvested and resuspended in PBS, 2% FBS at a concentration of approximately 1×10⁶/ml. Cells were stained with purified IgGs at 4° C. for 40 min. Cells were washed with 4 mL PBS, 2% FBS, then centrifuged at 1200 rpm for 10 minutes. Supernatant was removed. Cells were stained with R-PE conjugated anti-mouse IgG at 4° C. for 30 min. Cells were washed with 4 mL PBS, 2% FBS, then centrifuged at 1200 rpm for 10 minutes. Supernatant was removed and cell pellets were fixed in 1% formaldehyde. Cells were analyzed on a FACS Calibur (BD Biosciences) by collecting 20,000 events from gate 1.

The target of assay [5] is T5, Her4 on CHO cells (CHO-Her4) (UniProt Q15303 26-1308, limits assumed).
T5 construct: whole, on cells
Description: FACS on CHO-Her4 cells, purified IgG, R-PE anti-mouse IgG. Here is the method: as §2, with “CHO-Her2, CHO-Her4, CHO-EGFR cells” for “CHO cell lines expressing human or mouse Her3 receptors were used to study species-cross reactivity. Cells”

The target in assay [6] is T3, human Her3 receptor on cells (T47D, …). Description: cell-based or functional assay. This is another data set of the same source.
In assay [7] the target is T6, Her2 on CHO cells (CHO-Her2) (UniProt P04626 23-1255, limits assumed).
T6 construct: whole, on cells
Description: FACS on CHO-Her2 cells, purified IgG, R-PE anti-mouse IgG. Here is the method: as §2, with “CHO-Her2, CHO-Her4, CHO-EGFR cells” for “CHO cell lines expressing human or mouse Her3 receptors were used to study species-cross reactivity. Cells”

The target of assay [8] is T3, human Her3 receptor on cells (T47D, …). Description: cell-based or functional assay. The source holds these as a separate data set.
For assay [9], the target named is T7, EGFR on CHO cells (CHO-EGFR) (UniProt P00533 25-1210, limits assumed).
T7 construct: whole, on cells
In words: FACS on CHO-EGFR cells, purified IgG, R-PE anti-mouse IgG. Here is the method: as §2, with “CHO-Her2, CHO-Her4, CHO-EGFR cells” for “CHO cell lines expressing human or mouse Her3 receptors were used to study species-cross reactivity. Cells”

In assay [10] the target is T3, human Her3 receptor on cells (T47D, …). Description: cell-based or functional assay. The source holds these as a separate data set.

T3 sequence (P21860 20-1342 limits assumed, stated change not applied): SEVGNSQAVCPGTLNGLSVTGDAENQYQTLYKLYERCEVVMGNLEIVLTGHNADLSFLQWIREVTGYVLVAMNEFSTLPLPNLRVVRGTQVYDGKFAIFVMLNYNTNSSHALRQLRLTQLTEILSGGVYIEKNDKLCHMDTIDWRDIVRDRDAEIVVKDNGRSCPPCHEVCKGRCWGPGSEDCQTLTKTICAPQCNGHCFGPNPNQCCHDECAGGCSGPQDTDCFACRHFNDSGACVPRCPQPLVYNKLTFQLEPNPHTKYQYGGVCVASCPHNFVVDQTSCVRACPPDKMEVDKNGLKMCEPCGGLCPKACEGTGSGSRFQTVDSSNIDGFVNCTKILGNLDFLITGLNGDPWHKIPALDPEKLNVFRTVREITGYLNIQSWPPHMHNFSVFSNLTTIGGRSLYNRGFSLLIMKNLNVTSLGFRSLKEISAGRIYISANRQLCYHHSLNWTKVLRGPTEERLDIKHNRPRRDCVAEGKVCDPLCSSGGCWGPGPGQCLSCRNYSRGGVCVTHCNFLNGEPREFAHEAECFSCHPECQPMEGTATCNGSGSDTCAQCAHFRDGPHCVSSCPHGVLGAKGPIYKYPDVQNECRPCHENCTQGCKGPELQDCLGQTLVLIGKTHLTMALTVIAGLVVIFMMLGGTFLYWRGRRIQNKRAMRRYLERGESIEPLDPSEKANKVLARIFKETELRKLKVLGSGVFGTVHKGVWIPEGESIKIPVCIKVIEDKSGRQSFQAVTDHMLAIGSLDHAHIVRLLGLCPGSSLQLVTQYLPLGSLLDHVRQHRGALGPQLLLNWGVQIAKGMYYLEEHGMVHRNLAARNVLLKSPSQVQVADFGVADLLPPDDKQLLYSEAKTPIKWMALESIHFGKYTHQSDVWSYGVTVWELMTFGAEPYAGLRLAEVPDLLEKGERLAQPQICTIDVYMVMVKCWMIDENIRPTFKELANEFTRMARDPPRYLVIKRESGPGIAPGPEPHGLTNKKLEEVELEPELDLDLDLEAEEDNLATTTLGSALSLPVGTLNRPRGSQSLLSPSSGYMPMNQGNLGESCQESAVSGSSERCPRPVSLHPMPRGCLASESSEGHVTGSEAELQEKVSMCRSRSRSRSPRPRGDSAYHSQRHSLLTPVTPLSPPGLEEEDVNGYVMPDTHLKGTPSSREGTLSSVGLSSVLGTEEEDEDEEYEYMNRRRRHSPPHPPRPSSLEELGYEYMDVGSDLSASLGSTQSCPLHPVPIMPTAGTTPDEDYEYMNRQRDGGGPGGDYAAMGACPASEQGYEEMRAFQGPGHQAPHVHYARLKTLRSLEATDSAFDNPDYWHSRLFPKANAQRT
T2 sequence (P21860 20-643 limits assumed): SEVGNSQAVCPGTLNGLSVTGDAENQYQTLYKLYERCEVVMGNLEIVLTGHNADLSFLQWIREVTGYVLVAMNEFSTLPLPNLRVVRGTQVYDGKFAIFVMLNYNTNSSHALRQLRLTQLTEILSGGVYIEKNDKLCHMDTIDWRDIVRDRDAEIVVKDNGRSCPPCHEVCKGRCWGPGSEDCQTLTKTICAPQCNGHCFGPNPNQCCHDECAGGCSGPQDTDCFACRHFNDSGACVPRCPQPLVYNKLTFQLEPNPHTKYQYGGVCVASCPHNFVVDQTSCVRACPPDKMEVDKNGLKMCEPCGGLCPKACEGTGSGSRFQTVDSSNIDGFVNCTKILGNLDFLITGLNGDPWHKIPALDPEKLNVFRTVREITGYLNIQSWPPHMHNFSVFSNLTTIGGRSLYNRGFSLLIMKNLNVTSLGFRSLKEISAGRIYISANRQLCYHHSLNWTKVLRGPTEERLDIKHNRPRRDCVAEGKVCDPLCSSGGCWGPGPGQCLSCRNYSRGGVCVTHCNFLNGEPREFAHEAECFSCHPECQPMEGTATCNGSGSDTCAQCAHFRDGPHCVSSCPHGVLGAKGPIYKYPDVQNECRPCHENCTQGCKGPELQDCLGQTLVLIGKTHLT
T5 sequence (Q15303 26-1308 limits assumed): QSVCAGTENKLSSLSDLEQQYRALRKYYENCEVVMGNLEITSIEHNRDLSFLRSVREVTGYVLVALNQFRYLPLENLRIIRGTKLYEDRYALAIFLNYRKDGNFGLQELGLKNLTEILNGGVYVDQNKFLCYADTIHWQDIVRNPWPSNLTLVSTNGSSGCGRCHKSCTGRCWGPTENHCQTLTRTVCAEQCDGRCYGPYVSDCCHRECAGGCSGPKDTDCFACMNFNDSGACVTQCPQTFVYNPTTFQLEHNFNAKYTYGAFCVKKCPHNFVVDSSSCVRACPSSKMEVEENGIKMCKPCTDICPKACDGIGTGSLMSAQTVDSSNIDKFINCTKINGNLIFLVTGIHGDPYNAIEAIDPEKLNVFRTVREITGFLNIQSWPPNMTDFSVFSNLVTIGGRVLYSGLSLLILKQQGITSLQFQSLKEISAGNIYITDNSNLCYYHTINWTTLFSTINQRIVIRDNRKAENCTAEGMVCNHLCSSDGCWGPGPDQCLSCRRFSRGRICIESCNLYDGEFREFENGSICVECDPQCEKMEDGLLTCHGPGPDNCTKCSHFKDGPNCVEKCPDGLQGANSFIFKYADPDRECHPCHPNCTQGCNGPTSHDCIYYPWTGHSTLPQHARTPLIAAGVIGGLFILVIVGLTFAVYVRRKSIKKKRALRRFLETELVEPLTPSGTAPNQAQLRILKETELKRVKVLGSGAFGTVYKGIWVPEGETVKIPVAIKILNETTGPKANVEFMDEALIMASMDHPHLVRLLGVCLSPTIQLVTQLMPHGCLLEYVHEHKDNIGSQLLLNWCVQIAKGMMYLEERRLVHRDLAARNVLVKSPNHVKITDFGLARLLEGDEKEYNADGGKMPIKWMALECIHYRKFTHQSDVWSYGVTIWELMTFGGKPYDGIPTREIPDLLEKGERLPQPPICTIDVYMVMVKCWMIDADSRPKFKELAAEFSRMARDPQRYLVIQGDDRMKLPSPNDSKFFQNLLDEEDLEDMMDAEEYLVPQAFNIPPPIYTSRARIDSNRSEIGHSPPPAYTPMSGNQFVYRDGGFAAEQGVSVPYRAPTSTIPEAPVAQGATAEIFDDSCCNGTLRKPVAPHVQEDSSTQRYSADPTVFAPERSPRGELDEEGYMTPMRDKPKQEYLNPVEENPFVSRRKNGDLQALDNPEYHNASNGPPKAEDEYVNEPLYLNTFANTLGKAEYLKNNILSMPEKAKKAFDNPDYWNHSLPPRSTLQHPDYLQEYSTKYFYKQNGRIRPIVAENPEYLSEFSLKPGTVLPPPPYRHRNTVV
T4 sequence (Q61526 20-1339 limits assumed): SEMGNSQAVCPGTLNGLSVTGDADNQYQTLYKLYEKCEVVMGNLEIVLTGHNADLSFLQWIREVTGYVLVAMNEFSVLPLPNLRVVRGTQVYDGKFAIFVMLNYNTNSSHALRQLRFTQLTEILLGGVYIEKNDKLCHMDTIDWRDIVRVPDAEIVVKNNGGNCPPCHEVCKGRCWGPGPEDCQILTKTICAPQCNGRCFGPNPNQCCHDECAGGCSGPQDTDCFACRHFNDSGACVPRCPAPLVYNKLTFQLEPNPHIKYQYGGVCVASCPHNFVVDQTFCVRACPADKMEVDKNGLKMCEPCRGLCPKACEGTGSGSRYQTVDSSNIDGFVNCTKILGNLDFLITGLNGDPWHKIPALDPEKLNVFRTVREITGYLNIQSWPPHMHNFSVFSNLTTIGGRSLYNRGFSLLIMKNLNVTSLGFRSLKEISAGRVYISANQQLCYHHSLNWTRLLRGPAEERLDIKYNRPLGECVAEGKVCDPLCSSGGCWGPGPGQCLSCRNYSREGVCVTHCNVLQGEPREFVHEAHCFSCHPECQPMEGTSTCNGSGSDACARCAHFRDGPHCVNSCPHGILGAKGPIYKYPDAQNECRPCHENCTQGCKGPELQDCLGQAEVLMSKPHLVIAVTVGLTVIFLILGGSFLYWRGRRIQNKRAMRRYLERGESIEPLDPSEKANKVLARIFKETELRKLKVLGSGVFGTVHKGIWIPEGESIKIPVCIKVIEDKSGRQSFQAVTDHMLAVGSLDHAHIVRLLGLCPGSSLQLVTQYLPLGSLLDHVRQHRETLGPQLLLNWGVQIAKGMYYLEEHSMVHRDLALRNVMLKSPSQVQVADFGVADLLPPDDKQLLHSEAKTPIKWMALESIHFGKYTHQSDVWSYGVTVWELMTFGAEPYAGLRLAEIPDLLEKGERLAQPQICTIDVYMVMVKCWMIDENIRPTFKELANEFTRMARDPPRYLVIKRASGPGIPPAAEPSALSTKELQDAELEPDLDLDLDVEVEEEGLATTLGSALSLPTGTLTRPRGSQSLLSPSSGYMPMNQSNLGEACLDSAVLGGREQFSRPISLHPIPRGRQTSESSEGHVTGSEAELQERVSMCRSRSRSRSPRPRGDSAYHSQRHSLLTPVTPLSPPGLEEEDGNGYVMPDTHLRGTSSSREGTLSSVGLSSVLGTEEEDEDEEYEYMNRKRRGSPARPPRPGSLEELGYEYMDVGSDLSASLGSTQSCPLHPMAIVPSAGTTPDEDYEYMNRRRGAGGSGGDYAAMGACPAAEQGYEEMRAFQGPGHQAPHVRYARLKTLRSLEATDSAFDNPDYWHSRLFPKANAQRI
T1 sequence (P21860 20-643 limits assumed): as the sequence (P21860 20-643 limits assumed) above

B1: PO-3H7-E3 (antibody, V domains shown)
VH: EVQLQQSGAELVKPGASVKISCKASGYSFTGYYMNWVKQSHGKSLEWIGNINPYYGGSNYNQKFKARATLTVDKSSSTAYMQLNSLTSEDSAVYYCARKGDLYYSMDYWGQGTSVTVSS
VL: DIVMTQTPLSLPVSLGDQASISCRSSQSIVHSNGNTYLEWYLQKPGQSPKLLIYKVSNRFSGVPDRFSGSGSGTDFTLKISRVEAEDLGIYYCFQGSHVPPTFGGGTKLELKR
notes: Purified mouse IgG from a hybridoma; also called PO-3H7-E3-HC; PO-3H7-E3-LC
With B1, the Kd in assay [1] was 1.6 nM. In addition, the IC50 with Her3/Avi/His10 receptor [2] was found to be 11 nM; with Her3/Avi/His10 receptor [3], 12.7 nM. Also, the “IC50 of pAKT inhibition (MCF7 cells stimulated with rhNRG1-β1, ELISA)” value in assay [4] amounted to 45.2 nM. Besides, the binding result was “binds” with mouse HER3/ErbB3, “no binding” in [5], “no binding” in assay [7] and “no binding” in [9]. In addition, the “% Receptor Internalization (T47D cells, FACS)” value in assay [6] is 14%. Also, the “IC50 of inhibition of pHer3 (MCF7 cells stimulated with rhNRG1-β1, ELISA)” value in assay [8] came out at 4.98 nM.

B2: PO-1G2-B6 (antibody, V domains shown)
VH: EVQLQQSGPELVKPGASVKISCKASGYSFTGYHIHWMKQSHVESLEWIGRINPYSGVTDYNQNFKDKANLTVDQSSSTAYMELHSLTSEDSAFYYCARTDYYGPWFAYWGQGTLVTVSA
VL: DIQMTQSPLSLPVSLGDQASISCRSSPSLVHSNGNTYLHWYLQKPGQSPKLLIYTVSNRFSGVPDRFSGSGSGTDFTLKINRVEAEDLGVYFCSQTTHVPWTFGGGTKLEIKR
notes: Purified mouse IgG from a hybridoma; also called PO-1G2-B6-HC; PO-1G2-B6-LC
Consider B2, for which the Kd in [1] is 5.5 nM. In addition, the IC50 with Her3/Avi/His10 receptor [2] stood at 42.6 nM; with Her3/Avi/His10 receptor [3], 72.8 nM. The binding result with mouse HER3/ErbB3 is reported as “binds”; in assay [5], “no binding”; in assay [7] it was “no binding”; in assay [9], “no binding”. The “% Receptor Internalization (T47D cells, FACS)” value in [6] amounted to 13%. The “IC50 of pERK inhibition (MCF7 cells stimulated with rhNRG1-β1, MSD)” value in assay [10] was found to be 290 nM. In addition, in assay [8], the “IC50 of inhibition of pHer3 (MCF7 cells stimulated with rhNRG1-β1, ELISA)” value worked out at 2.91 nM.

In general, Kd refers to the free concentration of one partner at which half of the binding sites on the other are occupied at equilibrium, for simple one-to-one binding. A word on the IC50: it is the point on the concentration scale where inhibition reaches its midpoint. Higher therefore signals weaker potency.
